In test [1] the target is T1, Epidermal growth factor receptor (EGFR), human, on cells (human, UniProt P00533 25-1210).
T1 construct: whole, on cells; The expression level differs between cell lines (HT29 > SW480 > SW620); It is reduced in HT29 cells transfected with siEGFR
Briefly: apparent dissociation constant, flow cytometry on HT29 cells, 0-200 nM peptide, 4° C., R^2=0.95. The procedure:
We measured the apparent dissociation constant of the peptide to HT29 cells as an assessment of binding affinity. QRH*-Cy5.5 was serially diluted in PBS at concentrations of 0, 10, 25, 50, 75, 100, 125, 150 and 200 nM. HT29 cells (˜10⁵) were incubated with QRH*-Cy5.5 at 4° C. for 1 hour, washed with cold PBS, and the mean fluorescence intensities were measured on flow cytometry. The equilibrium dissociation constant kd=1/kₐ was calculated by performing a least squares fit of the data to the non-linear equation I=(I₀+Iₘₐₓkₐ[X])/([…]). I₀ and Iₘₐₓ are the initial and maximum fluorescence intensities, corresponding to no peptide and at saturation, respectively, and [X] represents the concentration of the bound peptide [Thomas et al., Clin Exp Metastasis, 26:105-119 (2009)]. Origin 6.1 data analysis software (OriginLab Corp) was used to calculate kd.

For test [2], the target named is T1, Epidermal growth factor receptor …. Briefly: confocal fluorescence microscopy, FITC channel, OE21 cells.

Where no end group is shown, it is not given here. Cy5.5 = Cy5.5 fluorophore

Turning to QRHKPREGGGSK(Cy5.5)-NH2 (also called EGFR peptide) [QRH*-Cy5.5 (QRHKPRE peptide with GGGSK linker and Cy5.5 fluorophore)], in test [1], the Kd is 50 nM.

B1: FITC labeled SHRNRPRNTQPS (SHR*) peptide (peptide)
peptide: SHRNRPRNTQPS
modifications: also: FITC label, site not given here
notes: also called SHR*-FITC; FITC-labeled peptide
For B1, the “fold fluorescence intensity against the GGG* control peptide” value in test [2] was greater than 5 fold.
